Source: patent publication US20190248877A1 (Hoffmann-La Roche, published 2019)

T1: huTNC (recombinant human TnC antigen) (human, UniProt P24821 984-1798, biotin on the C-terminal avi-tag where used biotinylated (Examples 5 and 10))
T1 sequence: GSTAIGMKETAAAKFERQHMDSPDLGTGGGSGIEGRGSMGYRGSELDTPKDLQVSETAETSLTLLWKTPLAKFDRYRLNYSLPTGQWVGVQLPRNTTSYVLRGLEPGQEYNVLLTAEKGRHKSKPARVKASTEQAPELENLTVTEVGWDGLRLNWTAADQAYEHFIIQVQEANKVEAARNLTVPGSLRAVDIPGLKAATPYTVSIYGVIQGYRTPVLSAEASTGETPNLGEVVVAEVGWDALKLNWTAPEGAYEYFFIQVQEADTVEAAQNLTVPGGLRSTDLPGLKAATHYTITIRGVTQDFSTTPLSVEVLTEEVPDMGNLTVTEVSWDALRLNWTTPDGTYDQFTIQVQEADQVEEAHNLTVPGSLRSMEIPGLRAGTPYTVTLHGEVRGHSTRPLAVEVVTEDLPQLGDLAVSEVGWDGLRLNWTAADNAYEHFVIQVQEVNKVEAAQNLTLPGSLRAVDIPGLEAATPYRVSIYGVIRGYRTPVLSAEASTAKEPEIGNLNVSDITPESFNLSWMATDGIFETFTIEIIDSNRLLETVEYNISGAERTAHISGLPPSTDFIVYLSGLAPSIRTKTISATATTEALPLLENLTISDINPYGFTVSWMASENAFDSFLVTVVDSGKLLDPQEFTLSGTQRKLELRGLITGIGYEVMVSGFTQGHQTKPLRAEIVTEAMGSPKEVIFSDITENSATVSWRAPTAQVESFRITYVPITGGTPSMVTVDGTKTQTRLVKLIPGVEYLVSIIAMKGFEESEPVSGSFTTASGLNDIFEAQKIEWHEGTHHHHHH

T2: GST huTNC fn5 A1234 BC fn6 B (human, UniProt P24821 984-1798, biotin on the C-terminal avi-tag (BirA, site-specific))
T2 construct: also called Human GST-fused TnC fn5 A1234 BC fn6
T2 sequence: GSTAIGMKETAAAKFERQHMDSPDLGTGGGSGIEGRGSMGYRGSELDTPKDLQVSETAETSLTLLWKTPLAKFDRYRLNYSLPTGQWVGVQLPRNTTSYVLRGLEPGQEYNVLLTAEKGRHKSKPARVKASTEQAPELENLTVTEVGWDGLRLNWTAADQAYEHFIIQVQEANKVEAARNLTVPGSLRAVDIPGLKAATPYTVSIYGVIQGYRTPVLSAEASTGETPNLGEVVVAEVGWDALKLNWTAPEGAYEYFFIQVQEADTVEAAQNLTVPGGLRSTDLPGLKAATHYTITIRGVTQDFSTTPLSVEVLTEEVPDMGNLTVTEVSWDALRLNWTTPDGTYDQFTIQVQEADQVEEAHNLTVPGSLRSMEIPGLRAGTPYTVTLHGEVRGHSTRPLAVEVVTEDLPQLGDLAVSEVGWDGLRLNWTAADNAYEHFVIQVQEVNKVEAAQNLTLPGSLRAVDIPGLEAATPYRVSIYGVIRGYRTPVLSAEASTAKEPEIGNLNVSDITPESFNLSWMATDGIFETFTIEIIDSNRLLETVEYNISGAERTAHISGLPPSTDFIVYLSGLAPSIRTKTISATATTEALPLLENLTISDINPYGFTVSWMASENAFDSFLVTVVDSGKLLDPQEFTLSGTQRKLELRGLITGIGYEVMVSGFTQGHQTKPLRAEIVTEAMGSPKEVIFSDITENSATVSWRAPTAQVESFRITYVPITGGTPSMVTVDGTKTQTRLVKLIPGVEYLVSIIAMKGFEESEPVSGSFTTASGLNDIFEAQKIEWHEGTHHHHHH

T3: GST TNC hu fn5 B-C fn6 B (human, biotin on the C-terminal avi-tag (BirA, site-specific))
T3 chain: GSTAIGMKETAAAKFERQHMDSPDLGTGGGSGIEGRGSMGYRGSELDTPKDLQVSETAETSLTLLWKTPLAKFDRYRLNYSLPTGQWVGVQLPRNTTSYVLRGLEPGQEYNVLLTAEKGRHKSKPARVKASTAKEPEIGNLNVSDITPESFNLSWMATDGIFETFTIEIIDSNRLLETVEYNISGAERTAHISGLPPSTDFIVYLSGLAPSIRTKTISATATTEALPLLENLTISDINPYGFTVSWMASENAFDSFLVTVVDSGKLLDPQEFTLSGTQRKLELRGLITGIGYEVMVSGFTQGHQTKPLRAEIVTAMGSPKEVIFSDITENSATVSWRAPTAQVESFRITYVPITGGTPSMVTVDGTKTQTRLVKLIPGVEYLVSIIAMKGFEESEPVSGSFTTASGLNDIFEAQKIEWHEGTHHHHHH

T4: cynoTNC (recombinant cynomolgus TnC antigen) (cynomolgus, biotin on the C-terminal avi-tag where used biotinylated (Example 5))
T4 construct: GST may have been cleaved off by thrombin; The text says this construct lacks the C domain
T4 chain: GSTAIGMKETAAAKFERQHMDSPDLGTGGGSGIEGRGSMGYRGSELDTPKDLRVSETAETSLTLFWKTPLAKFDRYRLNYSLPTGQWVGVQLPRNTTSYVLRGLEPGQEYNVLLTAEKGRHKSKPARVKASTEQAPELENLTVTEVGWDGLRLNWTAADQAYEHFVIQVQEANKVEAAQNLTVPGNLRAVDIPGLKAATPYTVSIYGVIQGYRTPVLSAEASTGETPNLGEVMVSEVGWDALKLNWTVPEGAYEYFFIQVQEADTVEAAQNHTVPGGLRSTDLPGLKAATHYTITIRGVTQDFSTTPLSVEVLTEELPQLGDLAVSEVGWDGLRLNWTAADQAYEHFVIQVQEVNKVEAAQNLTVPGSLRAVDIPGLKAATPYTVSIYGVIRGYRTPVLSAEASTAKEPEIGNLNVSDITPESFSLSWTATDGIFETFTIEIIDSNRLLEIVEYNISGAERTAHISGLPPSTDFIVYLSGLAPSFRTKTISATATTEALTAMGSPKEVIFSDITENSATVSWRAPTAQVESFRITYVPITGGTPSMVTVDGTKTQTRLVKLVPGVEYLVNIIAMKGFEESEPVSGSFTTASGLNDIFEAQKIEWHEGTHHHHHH

T5: muTNC (recombinant murine TnC antigen) (mouse, biotin on the C-terminal avi-tag where used biotinylated (Example 5))
T5 construct: GST may have been cleaved off by thrombin; The text says this construct lacks the C domain; also called mouse TnC
T5 chain: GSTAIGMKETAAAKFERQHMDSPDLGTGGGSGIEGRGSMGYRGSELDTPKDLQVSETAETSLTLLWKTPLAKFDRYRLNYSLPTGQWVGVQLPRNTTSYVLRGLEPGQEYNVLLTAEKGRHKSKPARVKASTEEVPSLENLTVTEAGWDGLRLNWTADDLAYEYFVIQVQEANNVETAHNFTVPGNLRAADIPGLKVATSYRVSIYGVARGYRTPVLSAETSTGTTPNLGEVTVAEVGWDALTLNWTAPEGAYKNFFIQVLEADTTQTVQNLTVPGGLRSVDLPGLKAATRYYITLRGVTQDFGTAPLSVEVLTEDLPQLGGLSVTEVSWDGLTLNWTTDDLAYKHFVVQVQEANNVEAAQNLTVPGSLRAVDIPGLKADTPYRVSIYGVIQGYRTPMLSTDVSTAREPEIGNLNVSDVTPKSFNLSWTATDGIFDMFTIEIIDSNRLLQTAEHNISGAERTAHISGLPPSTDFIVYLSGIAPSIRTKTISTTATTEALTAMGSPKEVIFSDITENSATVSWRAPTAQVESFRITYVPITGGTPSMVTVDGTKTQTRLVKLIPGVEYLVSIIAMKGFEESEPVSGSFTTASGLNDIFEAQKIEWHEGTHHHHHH

B1: anti-TnC clone 11C7 rabbit IgG (antibody, V domains shown)
VH: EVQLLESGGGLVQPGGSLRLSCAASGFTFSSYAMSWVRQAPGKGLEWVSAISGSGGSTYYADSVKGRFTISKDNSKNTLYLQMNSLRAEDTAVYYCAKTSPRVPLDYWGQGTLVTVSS
VL: SSELTQDPAVSVALGQTVRVTCQGDSLRSYYASWYQQKPGQAPVLVIYGKNNRPSGIPDRFSGSSSGNTASLTITGAQAEDEADYYCNSINSTRNEVFGGGTKLTVL
notes: also called llC7 rb IgG; 11C7 (rb IgG)
B2: anti-TnC clone 11C7 Fab (Fab, V domains shown)
VH: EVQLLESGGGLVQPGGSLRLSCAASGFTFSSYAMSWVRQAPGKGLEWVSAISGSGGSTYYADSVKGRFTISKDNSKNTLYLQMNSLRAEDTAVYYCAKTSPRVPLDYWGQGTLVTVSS
VL: SSELTQDPAVSVALGQTVRVTCQGDSLRSYYASWYQQKPGQAPVLVIYGKNNRPSGIPDRFSGSSSGNTASLTITGAQAEDEADYYCNSINSTRNEVFGGGTKLTVL
notes: Bacterially expressed purified Fab from the lambda-DP47 phage library format (lambda CL, CH1, tags)
B3: anti-TnC 18D4 wild type human IgG1 (antibody)
heavy: not shown
light: DIQMTQSPSTLSASVGDRVTITCRASQSISSWLAWYQQKPGKAPKLLIYDASSLESGVPSRFSGSGSGTEFTLTISSLQPDDFATYYCQQNKKFPSGTFGQGTKVEIKRTVAAPSVFIFPPSDEQLKSGTASVVCLLNNFYPREAKVQWKVDNALQSGNSQESVTEQDSKDSTYSLSSTLTLSKADYEKHKVYACEVTHQGLSSPVTKSFNRGEC
notes: also called 18D4 IgG wt Fc; a-TnC(18D4) huIgG1
B4: anti-TnC(18D4) huIgG1 P329G LALA (antibody)
heavy: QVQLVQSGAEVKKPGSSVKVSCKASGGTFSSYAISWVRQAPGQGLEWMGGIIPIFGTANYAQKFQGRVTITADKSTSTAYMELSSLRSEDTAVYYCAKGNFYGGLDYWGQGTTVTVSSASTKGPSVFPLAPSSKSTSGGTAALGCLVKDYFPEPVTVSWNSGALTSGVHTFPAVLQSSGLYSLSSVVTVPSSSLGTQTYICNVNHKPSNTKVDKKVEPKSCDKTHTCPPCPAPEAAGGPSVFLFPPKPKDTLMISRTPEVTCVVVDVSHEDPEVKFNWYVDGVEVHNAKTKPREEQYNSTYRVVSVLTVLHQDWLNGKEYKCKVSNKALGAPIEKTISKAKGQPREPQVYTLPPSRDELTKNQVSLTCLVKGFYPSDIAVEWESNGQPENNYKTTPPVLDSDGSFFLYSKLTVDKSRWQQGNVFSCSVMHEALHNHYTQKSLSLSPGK
light: DIQMTQSPSTLSASVGDRVTITCRASQSISSWLAWYQQKPGKAPKLLIYDASSLESGVPSRFSGSGSGTEFTLTISSLQPDDFATYYCQQNKKFPSGTFGQGTKVEIKRTVAAPSVFIFPPSDEQLKSGTASVVCLLNNFYPREAKVQWKVDNALQSGNSQESVTEQDSKDSTYSLSSTLTLSKADYEKHKVYACEVTHQGLSSPVTKSFNRGEC
notes: also called 18D4 IgG PG/LALA; 18D4 IgG PGLALA

Key:
[1] = target: T1, huTNC (recombinant human TnC antigen); test: SPR Biacore T200, biotinylated TnC on SA chip, IgG as analyte, 1:1 fit (apparent, bivalent)
Protocol: (§1) Binding of the anti-TnC IgGs 18D4, 11C7 and the Fab fragment of anti-TnC 18D4 to human, murine and cynomolgus TnC (antigens according to Table 4) was assessed by surface plasmon resonance (SPR). All SPR experiments were performed on a Biacore T200 at 25° C. with HBS-EP as running buffer (0.01 M HEPES pH 7.4, 0.15 M NaCl, 3 mM EDTA, 0.005% Surfactant P20, Biacore, Freiburg/Germany).
(§2) A 20 μg/ml stock solution of biotinylated human, murine or cynomolgus TnC was injected on a SA chip, with the aim to immobilize up to 100 RU using the immobilization wizard function.
(§3) An additional dissociation step of 1800s was performed for the highest concentration of IgG. After each step the surface was regenerated following two sequential injections of 10 mM glycine pH2.1 for 60 s. Bulk refractive index differences were corrected for by subtracting the response obtained in a reference flow cell without TNC. Affinity and avidity were calculated using the Langmuir 1:1 kinetic model. However, as the KD for the 1:1 fitting of bivalent interactions is an apparent value only, it should only be used for comparisons.

[2] = target: T2, GST huTNC fn5 A1234 BC fn6 B; test: SPR ProteOn XPR36, biotinylated antigen on NLC chip, Fab as analyte, 25 C
Protocol: (§4) Immobilization of antigens (ligand): Recombinant antigens were diluted with PBST (10 mM phosphate, 150 mM sodium chloride pH 7.4, 0.005% Tween 20) to 10 μg/ml, then injected at 30 μl/minute in vertical orientation. Injection of analytes: For ‘one-shot kinetics’ measurements, injection direction was changed to horizontal orientation, two-fold dilution series of purified Fab were injected simultaneously along separate channels 1-5, with association times of 200 s, and dissociation times of 240 s, respectively. Buffer (PBST) was injected along the sixth channel to provide an “in-line” blank for referencing. Association rate constants (kₒₙ) and dissociation rate constants (koff) were calculated using a simple one-to-one Langmuir binding model in ProteOn Manager v3.1 software by simultaneously fitting the association and dissociation sensorgrams. The equilibrium dissociation constant (KD) was calculated as the ratio koff/kₒₙ.

GST TNC hu fn5 B-C fn6 B = target: T3, GST TNC hu fn5 B-C fn6 B; test: as above
Protocol: as §4

[3] = target: T4, cynoTNC (recombinant cynomolgus TnC …); test: SPR Biacore T200, biotinylated TnC on SA chip, IgG as analyte, 1:1 fit (apparent, bivalent)
Protocol: as §1, §2, §3

[4] = target: T5, muTNC (recombinant murine TnC antigen); test: as above
Protocol: as §1, §2, §3

[5] = target: T6, human TnC on TnC-expressing U87-MG glioblastoma cells (human, UniProt P24821 23-2201); test: flow cytometry on TnC-expressing U87-MG cells
T6 construct: whole, on cells; also called human-TnC expressing U87-MG
T6 sequence (P24821 23-2201): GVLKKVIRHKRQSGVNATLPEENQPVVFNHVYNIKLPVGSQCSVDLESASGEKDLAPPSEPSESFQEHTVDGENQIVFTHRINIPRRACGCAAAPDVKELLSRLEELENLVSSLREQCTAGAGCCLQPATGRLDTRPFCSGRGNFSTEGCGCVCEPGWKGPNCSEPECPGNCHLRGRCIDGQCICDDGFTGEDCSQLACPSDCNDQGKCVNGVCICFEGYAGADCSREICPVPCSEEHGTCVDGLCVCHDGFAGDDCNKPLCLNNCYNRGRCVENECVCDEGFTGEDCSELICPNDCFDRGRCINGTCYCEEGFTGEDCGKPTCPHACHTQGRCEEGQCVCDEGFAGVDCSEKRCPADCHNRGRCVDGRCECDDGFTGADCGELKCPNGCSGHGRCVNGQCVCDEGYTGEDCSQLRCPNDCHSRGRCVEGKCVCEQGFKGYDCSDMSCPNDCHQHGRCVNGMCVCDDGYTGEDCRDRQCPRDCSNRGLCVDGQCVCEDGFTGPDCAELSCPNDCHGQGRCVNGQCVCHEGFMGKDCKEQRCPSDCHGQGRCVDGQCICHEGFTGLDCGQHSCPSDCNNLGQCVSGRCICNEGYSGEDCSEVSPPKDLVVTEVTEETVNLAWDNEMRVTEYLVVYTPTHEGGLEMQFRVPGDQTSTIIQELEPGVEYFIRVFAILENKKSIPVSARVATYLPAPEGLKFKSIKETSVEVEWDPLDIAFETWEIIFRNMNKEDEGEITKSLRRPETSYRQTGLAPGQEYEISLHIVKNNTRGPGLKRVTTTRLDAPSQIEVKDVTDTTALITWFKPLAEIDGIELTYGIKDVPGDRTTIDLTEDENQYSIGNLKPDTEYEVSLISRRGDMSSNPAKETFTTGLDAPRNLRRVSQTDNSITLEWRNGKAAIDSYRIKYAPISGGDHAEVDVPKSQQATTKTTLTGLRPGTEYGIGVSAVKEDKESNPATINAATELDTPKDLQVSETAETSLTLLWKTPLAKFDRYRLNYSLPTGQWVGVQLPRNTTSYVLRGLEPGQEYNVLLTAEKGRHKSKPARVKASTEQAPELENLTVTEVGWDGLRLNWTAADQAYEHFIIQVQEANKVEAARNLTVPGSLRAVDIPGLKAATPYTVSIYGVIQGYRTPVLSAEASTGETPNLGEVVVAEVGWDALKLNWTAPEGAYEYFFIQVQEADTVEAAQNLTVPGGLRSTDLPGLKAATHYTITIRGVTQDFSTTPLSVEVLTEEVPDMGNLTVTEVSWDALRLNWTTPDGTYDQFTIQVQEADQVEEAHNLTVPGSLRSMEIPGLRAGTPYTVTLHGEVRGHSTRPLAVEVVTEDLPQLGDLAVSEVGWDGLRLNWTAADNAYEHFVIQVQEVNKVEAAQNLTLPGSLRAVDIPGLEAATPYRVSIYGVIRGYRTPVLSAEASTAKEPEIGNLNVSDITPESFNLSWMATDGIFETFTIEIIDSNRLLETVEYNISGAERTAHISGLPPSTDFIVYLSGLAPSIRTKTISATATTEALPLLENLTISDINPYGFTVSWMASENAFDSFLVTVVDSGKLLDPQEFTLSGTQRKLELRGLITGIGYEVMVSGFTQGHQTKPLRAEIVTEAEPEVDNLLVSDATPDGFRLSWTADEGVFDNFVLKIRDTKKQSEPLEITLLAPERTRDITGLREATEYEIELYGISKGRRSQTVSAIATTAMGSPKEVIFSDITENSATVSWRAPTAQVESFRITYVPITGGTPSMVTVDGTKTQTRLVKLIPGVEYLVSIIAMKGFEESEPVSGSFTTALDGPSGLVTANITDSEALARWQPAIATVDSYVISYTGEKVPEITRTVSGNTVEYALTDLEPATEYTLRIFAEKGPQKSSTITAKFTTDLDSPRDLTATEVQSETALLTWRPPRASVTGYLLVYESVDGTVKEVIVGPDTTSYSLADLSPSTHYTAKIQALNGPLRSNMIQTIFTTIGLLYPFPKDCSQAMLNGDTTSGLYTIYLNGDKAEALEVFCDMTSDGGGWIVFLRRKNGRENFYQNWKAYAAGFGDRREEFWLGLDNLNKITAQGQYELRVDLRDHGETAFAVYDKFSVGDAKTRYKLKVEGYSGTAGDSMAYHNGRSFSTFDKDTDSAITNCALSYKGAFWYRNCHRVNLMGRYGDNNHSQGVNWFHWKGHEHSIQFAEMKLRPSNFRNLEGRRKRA
Protocol: For binding assays on TnC expressing tumor cells the human glioblastoma cell line U87-MG (ATCC HTB-14) was used.
Cells were washed once with 200 μL DPBS. […] Cells were washed once with 200 μL/well 4° C. cold DPBS buffer and resuspended in 50 μL/well of 4° C. cold FACS buffer (DPBS supplied with 2% FBS, 5 mM EDTA pH8 (Amresco, Cat. No. E177) and 7.5 mM Sodium azide (Sigma-Aldrich S2002)) containing TnC-targeted 4-1BB split trimeric ligand Fc fusion antigen binding molecules or their controls at a series of concentrations, followed by incubation for 1 hour at 4° C. […] Cells were washed twice with 200 μL/well 4° C. FACS buffer and cells were fixed in 50 μL/well DPBS containing 1% Formaldehyde (Sigma, HT501320-9.5L). Cells were resuspended in 100 μL/well FACS-buffer and acquired using the MACS Quant Analyzer 10 (Miltenyi Biotech).
Gates were set on living tumor cells and geo means of fluorescence intensity of PE-conjugated AffiniPure anti-human IgG IgG Fcγ-fragment-specific goat F(ab′)2 fragment were blotted against the titrated concentration of TnC-targeted 4-1BB split trimeric ligand Fc fusion antigen binding molecules or their controls.

| Binder | Kd [1] | Kd [2] | Kd (GST TNC hu fn5 B-C fn6 B) | Kd [3] | Kd [4] | EC50 [5] |
| --- | --- | --- | --- | --- | --- | --- |
| B1 | 0.029 nM |  |  |  |  |  |
| B2 |  | 2.3 nM | 1 nM |  |  |  |
| B3 | 0.093 nM |  |  | 0.036 nM | 0.061 nM |  |
| B4 | 0.032 nM |  |  | 0.011 nM | 0.03 nM | 4.24 nM |
